Data as given in patent publication US8808980B2, “Stabilized open form transglutaminase as a diagnostic indictor for autoimmune diseases” (Zedira GmbH, priority 2009, dated 2014).

B1: open TG2: recombinant TG2 stabilized in its open form by reaction with the inhibitor Z-PIMen(OEt)-QPL-OMe (protein, UniProt P21980 2-687, looked up)
Protein-glutamine …: AEELVLERCDLELETNGRDHHTADLCREKLVVRRGQPFWLTLHFEGRNYEASVDSLTFSVVTGPAPSQEAGTKARFPLRDAVEEGDWTATVVDQQDCTLSLQLTTPANAPIGLYRLSLEASTGYQGSSFVLGHFILLFNAWCPADAVYLDSEEERQEYVLTQQGFIYQGSAKFIKNIPWNFGQFEDGILDICLILLDVNPKFLKNAGRDCSRRSSPVYVGRVVSGMVNCNDDQGVLLGRWDNNYGDGVSPMSWIGSVDILRRWKNHGCQRVKYGQCWVFAAVACTVLRCLGIPTRVVTNYNSAHDQNSNLLIEYFRNEFGEIQGDKSEMIWNFHCWVESWMTRPDLQPGYEGWQALDPTPQEKSEGTYCCGPVPVRAIKEGDLSTKYDAPFVFAEVNADVVDWIQQDDGSVHKSINRSLIVGLKISTKSVGRDEREDITHTYKYPEGSSEEREAFTRANHLNKLAEKEETGMAMRIRVGQSMNMGSDFDVFAHITNNTAEEYVCRLLLCARTVSYNGILGPECGTKYLLNLNLEPFSEKSVPLCILYEKYRDCLTESNLIKVRALLVEPVINSYLLAERDLYLENPEIKIRILGEPKQKRKLVAEVSLQNPLPVALEGCTFTVEGAGLTEEQKTVEIPDPVEAGEEVKVRMDLLPLHMGLHKLVVNFESDKLKAVKGFRNVIIGPA
modifications: Z-PIMen(OEt)-QPL-OMe inhibitor adduct
B2: TG2 ΔS538: tissue transglutaminase deletion mutant lacking C-terminal amino acids from position S538 (protein, UniProt P21980 1-537, looked up, fragment)
chain: MAEELVLERCDLELETNGRDHHTADLCREKLVVRRGQPFWLTLHFEGRNYEASVDSLTFSVVTGPAPSQEAGTKARFPLRDAVEEGDWTATVVDQQDCTLSLQLTTPANAPIGLYRLSLEASTGYQGSSFVLGHFILLFNAWCPADAVYLDSEEERQEYVLTQQGFIYQGSAKFIKNIPWNFGQFEDGILDICLILLDVNPKFLKNAGRDCSRRSSPVYVGRVVSGMVNCNDDQGVLLGRWDNNYGDGVSPMSWIGSVDILRRWKNHGCQRVKYGQCWVFAAVACTVLRCLGIPTRVVTNYNSAHDQNSNLLIEYFRNEFGEIQGDKSEMIWNFHCWVESWMTRPDLQPGYEGWQALDPTPQEKSEGTYCCGPVPVRAIKEGDLSTKYDAPFVFAEVNADVVDWIQQDDGSVHKSINRSLIVGLKISTKSVGRDEREDITHTYKYPEGSSEEREAFTRANHLNKLAEKEETGMAMRIRVGQSMNMGSDFDVFAHITNNTAEEYVCRLLLCARTVSYNGILGPECGTKYLLNLNLEPF
B3: TG2 ΔE447: tissue transglutaminase deletion mutant lacking C-terminal amino acids from position E447 (protein, UniProt P21980 1-446, looked up, fragment)
chain: MAEELVLERCDLELETNGRDHHTADLCREKLVVRRGQPFWLTLHFEGRNYEASVDSLTFSVVTGPAPSQEAGTKARFPLRDAVEEGDWTATVVDQQDCTLSLQLTTPANAPIGLYRLSLEASTGYQGSSFVLGHFILLFNAWCPADAVYLDSEEERQEYVLTQQGFIYQGSAKFIKNIPWNFGQFEDGILDICLILLDVNPKFLKNAGRDCSRRSSPVYVGRVVSGMVNCNDDQGVLLGRWDNNYGDGVSPMSWIGSVDILRRWKNHGCQRVKYGQCWVFAAVACTVLRCLGIPTRVVTNYNSAHDQNSNLLIEYFRNEFGEIQGDKSEMIWNFHCWVESWMTRPDLQPGYEGWQALDPTPQEKSEGTYCCGPVPVRAIKEGDLSTKYDAPFVFAEVNADVVDWIQQDDGSVHKSINRSLIVGLKISTKSVGRDEREDITHTYKYP

Columns and labels:
[1] = test system: Patient F (celiac disease); assay: hyposensitisation of a celiac disease patient with open TG2; type: in vivo, human; conditions: subcutaneous, 6 months weekly rising doses, then monthly 1.5 years; then 1 g gluten per day
Excerpt: Patient F suffered from celiac disease and has been on gluten free diet for 8 years. […] Patient F has been injected subcutaneously a solution containing open TG2, which has been produced according to example 1. Injections have been repeated weekly over a period of six months; the doses have been increased over this period in order to reach the maintenance dose. The application has then been repeated applying the maintenance dose once a month for 1.5 years. Patient F was kept on a strict gluten free diet for this whole hyposensitisation therapy period. Later-on the patient started to consume minor amounts (1 g per day) of gluten in addition to the gluten free diet.

[2] = enzymatic activity of truncated tissue transglutaminases; type: biochemical
Excerpt: Tissue transglutaminase fragments were produced recombinantly in E. coli as deletion mutants lacking C-terminal amino acids from positions S538 and E447 according to example 1 an methods known to persons skilled in the art. The resulting truncated tissue transglutaminases still were enzymatically active, although the activity was reduced to 5 and 1% respectively compared to the full length enzyme. Transglutaminase 6 fragment lacking the C-terminal amino acids from position G594 was produced accordingly.

Molecule	celiac disease symptoms after hyposensitisation therapy [1]	enzymatic activity compared to the full length enzyme [2] [%]
B1	No celiac disease symptoms could be measured clinically or by biopsy or serology	
B2		5
B3		1
